Test [1] has as its target integrin α6β1 (human (endogenous in FHCC98 and SMMC-7721)) (UniProt P05556).
The target is the same in test [2]. The source holds these as a separate data set.
Test [3] shares this target. The source holds these as a separate data set.
Test [4] shares this target. The source holds these as a separate data set.

UniProt P05556, sequence (P05556 whole entry, looked up): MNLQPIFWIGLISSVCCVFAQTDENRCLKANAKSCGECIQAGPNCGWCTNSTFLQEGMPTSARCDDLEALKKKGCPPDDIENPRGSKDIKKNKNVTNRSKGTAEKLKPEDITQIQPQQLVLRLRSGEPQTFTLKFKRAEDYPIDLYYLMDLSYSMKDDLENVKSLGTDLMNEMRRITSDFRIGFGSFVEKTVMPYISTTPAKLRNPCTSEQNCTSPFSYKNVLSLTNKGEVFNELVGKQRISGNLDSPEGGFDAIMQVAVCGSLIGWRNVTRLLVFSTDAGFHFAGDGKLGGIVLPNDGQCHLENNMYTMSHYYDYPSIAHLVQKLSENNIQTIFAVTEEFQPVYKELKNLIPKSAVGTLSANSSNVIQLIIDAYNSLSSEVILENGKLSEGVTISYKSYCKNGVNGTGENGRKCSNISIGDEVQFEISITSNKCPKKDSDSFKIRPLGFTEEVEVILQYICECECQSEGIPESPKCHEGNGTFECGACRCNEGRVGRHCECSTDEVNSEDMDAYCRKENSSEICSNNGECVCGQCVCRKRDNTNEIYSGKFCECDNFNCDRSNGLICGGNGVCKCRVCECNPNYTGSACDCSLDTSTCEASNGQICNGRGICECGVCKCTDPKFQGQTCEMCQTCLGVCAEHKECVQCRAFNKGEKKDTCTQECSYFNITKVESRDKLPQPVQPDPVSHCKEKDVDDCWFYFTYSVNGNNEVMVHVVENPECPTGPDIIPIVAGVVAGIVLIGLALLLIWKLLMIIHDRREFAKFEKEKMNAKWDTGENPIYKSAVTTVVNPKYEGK

With “HAb18G/CD147 (from UniProt P35613 22-385) (natural protein)”, the Matrigel invasion of 7721 cells, reduction of invasive cell numbers versus the blank control group; anti-α6 mAb in test [1] came out at 27.2%. In test [2], the gelatin zymography, reduction of MMP density of 7721 cells versus the blank control group; anti-α6 mAb amounted to 22.8% and the gelatin zymography, reduction of the density of MMPs of FHCC98 cells versus the blank control group; anti-α6 mAb is 18.8%. In test [3], the gelatin zymography, reduction of the density of MMPs of FHCC98 cells versus the blank group; sncRNA + GoH3 + 3S3 was 29.1%; the gelatin zymography, reduction of the density of MMPs of FHCC98 cells versus the blank group; sncRNA + anti-α6 mAb GoH3 is 32.5%; the gelatin zymography, reduction of the density of MMPs of FHCC98 cells versus the blank group; sncRNA + anti-β1 mAb 3S3 came to 34.8%. Also, in test [4], the Matrigel invasion of FHCC98 cells, reduction of invasive cell numbers versus the blank group; sncRNA + GoH3 + 3S3 turned out to be 34.9%; the Matrigel invasion of FHCC98 cells, reduction of invasive cell numbers versus the blank group; sncRNA + anti-α6 mAb GoH3 stood at 32.4%; the Matrigel invasion of FHCC98 cells, reduction of invasive cell numbers versus the blank group; sncRNA + anti-β1 mAb 3S3 was found to be 31.1%.
